The test system of data set [1] is HMGB1-WT (Homo sapiens). Nature of the data set: restriction enzyme accessibility.
The test system of data set [2] is HMGB1-WT (Homo sapiens). In words: EMSA. The following applies: scale: fold lower affinity than with flanking DNA.

As for 40/40-Pst137 nucleosome, in the data set on HMGB1-WT (Homo sapiens) [1], the K half came out at 113 nM.

In the data set on HMGB1-WT (Homo sapiens) [2], core nucleosome (0/0) yielded a binding signal of 10.

(Values after PMC11370580.)
